# Laboratory results: the nanobody polyreactivity screen of Harvey et al. (2022)
# Experiment: yeast display, Sf9 membrane polyspecificity reagent, FACS + sequencing; frameworks hold sequencing errors
# Outline: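 Nanobodies came from a synthetic yeast display library in Saccharomyces cerevisiae BJ5465, induced with galactose for 36–48 hours and stained for 1 hour at 4 °C with 10% biotinylated, detergent-solubilized Sf9 membrane reagent. Cells were enriched on streptavidin microbeads and then FACS-sorted, with low and high (top ~1%) gates set on anti-HA fluorescence for expression and streptavidin fluorescence for reagent binding. Each polyreactivity label reflects the gate a clone came from. Genes were amplified by colony PCR, sequenced by MiSeq 2 × 250 and filtered by CDR length.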
row,Sequence,polyreactivity (PSR sort gate)
1,QVQLVESGGGLVQAGGSLRLSCAASGRTFWKYAMGWYRHAPGKERELVAAITDDDSTDYADSVKGRFTISRDNAKNTVYLQMNSLKPEDTAVYYCNADSSRYYRALEYWGQGTQVTVSS,low polyreactivity
2,QVQLVESGGGLVQAGGSLRLSCAASGRTFWKYVMGWYRQAPGKERELVAVISRPAGSTYYADSVKGRFTISRDNAKNTVYLQMNSLKPEDTAVYYCAKRPKNKPVLGDYDQWGQGTQVTVSS,low polyreactivity
3,QVQLVESGGGLVQAGGSLRLSCAASGRTFWNAMGWYRQEPGKERELVATITSGGITNYADSVKGRFTISRDNAKNTVYLQMNSLKPEDTAVYYCAARPYTWRNFRPSDYWGQGTQVTVSS,high polyreactivity
4,QVQLVESGGGLVQAGGSLRLSCAASGRTFWNYAKGWYRQAPGNERELVAVIRFSDGSTYYADSVKGRFTISRDNAKNTVYLQMNSLKPEDTAVYYCAAKGPRRWGSGFDYWGQGTQVTVSS,low polyreactivity
5,QVQLVESGGGLVQAGGSLRLSCAASGRTFWNYAMGWYRQAPGKERELVAVIRFSDVSTYYADSVKGRFTISRDNAKNTVYLQMNSLKPEDTAVYYCAAKGPRRWGSGFDYWGLGTQVTVSS,low polyreactivity
6,QVQLVESGGGLVQAGGSLRLSCAASGRTFWPYAMGWYRQAPGKERELVAAISTSGGSTYYADSVKGRFTISRDNAKNTVYLQMNSLKPEDTAVYYCAAYSTLTPAYEYWGQGTQVTVSS,high polyreactivity
7,QVQLVESGGGLVQAGGSLRLSCAASGRTFWRNAMGWYRQAPGKERELVAAINSGGRTYYADSVKGRFTISRDNAKNTVYLQMNSLKPEDTAVYYCAVYVHRFLDGRVRSYRGDYWGQGTQVTVSW,high polyreactivity
8,QVQLVESGGGLVQAGGSLRLSCAASGRTFWRNAMGWYRQAPGKERELVAAISSSGDRTYYADSVKGRFTISRDNAKNTVYLQMNSLKPEDTAVYYCAARTFWGAYDYWGQGTQVTVSS,high polyreactivity
9,QVQLVESGGGLVQAGGSLRLSCAASGRTFWSNAMGWYRPAPGKERELVAAITWSGGSTSYADSVKGRFTISRDNAKNTVYLQMNSLKPEDTAVYYCAAGKGVELAKLDYWGQGTQVTVSS,low polyreactivity
10,QVQLVESGGGLVQAGGSLRLSCAASGRTFWSNAMGWYRQAPGKERELVAAISTGAGSTYYADSVKGRFTISRDNAKNTVYLQMNSLKPEDTAVYYCAAVYNGALYNYYYWGEGTQVTVSS,high polyreactivity
11,QVQLVESGGGLVQAGGSLRLSCAASGRTFWSYAMGWYRQAPGKEREFVAAISRRGGITYYADSVKGRFTLSRDNAKNTVYLQMNSLKPEDTAVYYCAKGAQSYYGGQVKYDYWGQGTQVTVSS,high polyreactivity
12,QVQLVESGGGLVQAGGSLRLSCAASGRTFWSYAMGWYRQAPGKERELVAAINSSGDSTYYADSVKGRFTISRDNAKNTVYLQMNSLKPEDTAVYYCAADGGLLAGSDATVRMDYWGQGTQVTVSS,low polyreactivity
13,QVQLVESGGGLVQAGGSLRLSCAASGRTFWSYAMGWYRQAPGKVRELVAAITSSGGTTNYADSVKGRFTISRDNAKNTVYLQMNSLKPEDTAVYYCAADNGGAGYYYGYVWYDYWGQGTQVTVSS,low polyreactivity
14,QVQLVESGGGLVQAGGSLRLSCAASGRTFWTYTLGWYRQAPGKEREFVAAITFGDGSTSYADSVKGRFTISRDNAKNTVYLQMNSLKPEDTAVYYCAAADQVGQEDDYWGQGTQVTVSS,low polyreactivity
15,QVQLVESGGGLVQAGGSLRLSCAASGRTFWTYTMGWYRQAPGKEREFVAAITFGDGSTSYADSVKGRFTISRDNAKNTVYFQMNSLKPEDTAVYYCAKRWRRRFVDVWSLYDYWGQGTQVTVSS,low polyreactivity
16,QVQLVESGGGLVQAGGSLRLSCAASGRTFWVYAMGRYRQAPGKEREFVAAISSNGDRTYYADSVKGRFTISRDNAKNTVYLQMNSLKPEDTAVYYCNSRKQYRYLADRMDYWGQGTQVTVSS,high polyreactivity
17,QVQLVESGGGLVQAGGSLRLSCAASGRTFWWYAMGWYRQAPGKERELVATINVSGGSTYYADSVKGRFTISRDNAKNTVYFQINSLKPEDTAVYYCNKRGFYTPSVSYDYWGQGTQVTVSS,low polyreactivity
18,QVQLVESGGGLVQAGGSLRLSCAASGRTFWYYTMGWYRQAPGKERELVASITYRGGSTYYADSVKGRFTISRDNAKNTVYLQMNSLKPEDTAVYYCNARSGNRYGPRYDYWGQGTQVTVSS,high polyreactivity
19,QVQLVESGGGLVQAGGSLRLSCAASGRTFYANAMGWYRQAPGKERELVAAISTGGDGTYYADSVKGRFTISRDNAKNTVYLQMNSLKPEDTAVYYCAVRHRASGILYDYWGQGTQVTVSS,low polyreactivity
20,QVQLVESGGGLVQAGGSLRLSCAASGRTFYAYAMGWYRQAPGKERELVAAISWRGGDTYYADSVKGRFTISRDNAKNTVELQMNSLKPEDTAVYYCAKDLSRQSGDGEYDYWGQGTQVTVSS,low polyreactivity
21,QVQLVESGGGLVQAGGSLRLSCAASGRTFYAYAMGWYRQAPGKERELVASISDRGGSTYYADSVKGRFTISRDNAKNTVYVQMNSLKPEDTAVYYCAAEYRTQRWFGSWGQGTQVTVSS,high polyreactivity
22,QVQLVESGGGLVQAGGSLRLSCAASGRTFYAYTRGWYRQAPGKERELVAAISSSGTRTYYADSVKGRFTISRDNAKNTVYLQMNSLKPEDTAVYDCAKGTQRFRGLDHGYDYWGQGTQVTVSS,high polyreactivity

row,Sequence,polyreactivity (PSR sort gate)
1,QVQLVESGGGLVQAGGSLRLSCAASGRTFYDNAMGWYRQAPGKERELVAAISWSGGSTYADSVKGRFTISRDNAKNTVYLQMNSLKPEDTAVYYCNADAWLASGYRYDYWGQGTQVTVSS,low polyreactivity
2,QVQLVESGGGLVQAGGSLRLSCAASGRTFYDNAMGWYRQAPGKERELVAVISTSGARTYYADSVKGRFTISRDNAKNTVYLQMNSLKPEDTAVYYCAARRYKYSWDSGYDLYYWGQGTQVTVSS,high polyreactivity
3,QVQLVESGGGLVQAGGSLRLSCAASGRTFYDNVMGWYRQAPGKERELVAAISSGGSTNYADSVKGRFTISRDNAKNTVYLQMNSLIPEDTAVYYCATNGGGGWAYEYWGQGTQVTVSS,low polyreactivity
4,QVQLVESGGGLVQAGGSLRLSCAASGRTFYDYAMGWYRQAPGKERELVAAISRRAGSTYYADSVKGRFTISRDNAKNTVYLQMNSLKPEDTAVYYCAAAYYRRWWRGHHYAFDYWGQGTQVTVSS,high polyreactivity
5,QVQLVESGGGLVQAGGSLRLSCAASGRTFYFNGMGWYRQAPGKERELVATITASGTITYYADSVKGRFTISRDNAKNTVYLQLNSLKPEDTAVYYCAARQRGYYYSRRYDYWGQGTQVTVTS,high polyreactivity
6,QVQLVESGGGLVQAGGSLRLSCAASGRTFYFNGMGWYRQAPGKERELVATITASGTITYYADSVKGRFTISRDNAKNTVYLQMNSLKPEDTAVYYCAARQRGYYYSRSYDYWGQGTQVTVSS,high polyreactivity
7,QVQLVESGGGLVQAGGSLRLSCAASGRTFYFYTLGWYRPAPGKERELVAAITSGGSTNYADSVKGRFTISRDNAKNTVYLQMNSLIPEDTAVYYCAAKYYRVYGYGLRMYYWGQGTQVTVSS,high polyreactivity
8,QVQLVESGGGLVQAGGSLRLSCAASGRTFYFYVMGWYRQAPGKERELVARISWSGGSTYYADSVKGRFTISRDNAKNTVYLQMNSLKPEDTAVYYCARQYKYPSSGEYDSWGQGTQVSVSS,low polyreactivity
9,QVQLVESGGGLVQAGGSLRLSCAASGRTFYGNVMGWYRQAPGKERELVATISYSAGSTYYADSVKGRFTISRDNAKNTVYFQMNSLKPEDTAVYYCAAAGYVYHWAPRGSRYYYWGQGTQVTVSS,low polyreactivity
10,QVQLVESGGGLVQAGGSLRLSCAASGRTFYGYAMGRYRQAPGKERELVAAISSGGSTYYADSVKGRFTISRDNAKNTVYLQMNSLKPEDTAVYDCAAVKWRRHGGSSEYDYWGQGTQVTVSS,high polyreactivity
11,QVQLVESGGGLVQAGGSLRLSCAASGRTFYGYAMGWYRQAPGKERELVAAISRSGGRTYYADSVKGRFTISRDNAKNTVYLQMNSLKPEDTAVYYCAAYSVYASPDDYWGQGTQVTVSS,high polyreactivity
12,QVQLVESGGGLVQAGGSLRLSCAASGRTFYGYAMGWYRQAPGKERELVAGITSRVGSTYYADSVKGRFTISRDNAKNTVYLQMNSLKPEDTAVYYCAADRYAVRSYHYDYWGQGTQVTVSS,low polyreactivity
13,QVQLVESGGGLVQAGGSLRLSCAASGRTFYGYGMGWFRQAPGTDRELVAAIRVGGGSTYYADSVKGRFTISRDNAKNTVYLQMNILKPEDTAVYYCASAIYHYRQKDGYWGQGTQVTVSS,high polyreactivity
14,QVQLVESGGGLVQAGGSLRLSCAASGRTFYGYTMGWYRQAPGKERELVAAISWTGGRTYYADSVKGRFTISRDNAKNTVYLQMNSLKPEDTAVYYCAARRYQSEDVPYGYWGQGTQVTVSS,high polyreactivity
15,QVQLVESGGGLVQAGGSLRLSCAASGRTFYHYAMGLYRQAPGKERELVAALNRVGGTNYADSVKGRFTISRDNAKNTVYLQMNSLKPEDTAVYYCNADIVARSSYSTKYEEFYYWGLGTQVTVSS,low polyreactivity
16,QVQLVESGGGLVQAGGSLRLSCAASGRTFYHYTMGWSSQAPGKERELVARITRRVGSTYYADSVKGRFTISRDNTKNTVYLQMNSLKPEDTAVYYCNAKSGVYRYLLDYWGQGTQVTVTS,high polyreactivity
17,QVQLVESGGGLVQAGGSLRLSCAASGRTFYHYTMGWYRQAPGKERELVARITRRVGSTYYADSVKGRFTISRDNAKNTVYLQMNSLKPEDTAVYYCNDKSGLYRYLLDYWGQGTQVTVSS,high polyreactivity
18,QVQLVESGGGLVQAGGSLRLSCAASGRTFYINAMGWYRQAPGKERELVAAITWSGGRTYYADSVKGRFTISRDNAKNTVYLQMNSLKPEDTAVYYCNTRSYSYYVPYRYDYWGQGSQVTVSS,high polyreactivity
19,QVQLVESGGGLVQAGGSLRLSCAASGRTFYIYAMGWYRQAPGKERELVAAITRIDGSTYYADSVKGRFTISRDNAKNTVYLQMNSLKPEDTAVYYCAAEYGPGLTEGLYYYWGQGTQVTVSS,high polyreactivity
20,QVQLVESGGGLVQAGGSLRLSCAASGRTFYIYAMGWYRQAPGKERELVADITSGGSTYYADSVKGRFTISRDNAKNTVYLQMNSLKPDDTAVYYCAADWVTFYSYTEYDYWGQGSQVTVSS,low polyreactivity
21,QVQLVESGGGLVQAGGSLRLSCAASGRTFYIYAMGWYRQAPGKERELVARITTGGRTNYADSVKGRFTISRDNAKNTVYLQMNSLKPEDTAVYYCATQYRGRQRKYDYWGQGTQVTVSS,high polyreactivity
